Literature values as cited in paper PMC3505014.

Assays:
NRXN1β ECD = NRXN1β ECD (UniProt P58400); test: surface plasmon resonance
Cbln1 = Cbln1 (UniProt P23435); test: surface plasmon resonance

UniProt P58400, sequence (P58400 51-396): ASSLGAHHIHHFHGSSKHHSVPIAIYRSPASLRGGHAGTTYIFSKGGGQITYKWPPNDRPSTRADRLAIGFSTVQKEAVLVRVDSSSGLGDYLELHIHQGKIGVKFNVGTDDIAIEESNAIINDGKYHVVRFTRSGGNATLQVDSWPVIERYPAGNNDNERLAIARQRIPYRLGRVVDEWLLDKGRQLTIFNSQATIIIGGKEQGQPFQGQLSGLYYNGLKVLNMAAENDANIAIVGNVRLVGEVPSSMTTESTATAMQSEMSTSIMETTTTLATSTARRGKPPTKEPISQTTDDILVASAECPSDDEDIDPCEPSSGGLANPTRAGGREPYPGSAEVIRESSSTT
Cbln1, sequence (P23435 22-193): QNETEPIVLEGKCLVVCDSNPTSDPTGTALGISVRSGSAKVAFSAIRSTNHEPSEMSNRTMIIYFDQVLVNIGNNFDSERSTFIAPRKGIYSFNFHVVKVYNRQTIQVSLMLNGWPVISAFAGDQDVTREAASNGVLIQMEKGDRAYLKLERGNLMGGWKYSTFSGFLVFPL

Row | Substance | Kd (NRXN1β ECD) | Kd (Cbln1)
1 | Cbln1 (from UniProt P23435) | 0.17 nM | –
2 | GluRδ2 (from UniProt O43424) | – | 16.5 nM
